In US20260062488A1:

Tests used:
[1] = molecular target: cynomolgus αEβ7 integrin (cynomolgus monkey); assay: FACS, 1 µg/ml, BaF3-cαEβ7 cells
[2] = molecular target: cynomolgus α4β7 integrin (cynomolgus monkey); assay: blockade of CHOK1/cα4β7 adhesion to MAdCAM-1
[3] = molecular target: human α4β7 integrin (human) (UniProt P13612); assay: competitive FACS, 50x excess of non-labelled competitor Ab-m1
[4] = molecular target: mouse α4β7 integrin (mouse) (UniProt Q00651); assay: FACS, 1 µg/ml, CHOK1-mα4β7 cells
Sequence of mouse α4β7 integrin (mouse) (Q00651 41-1039, chain 1 of 2): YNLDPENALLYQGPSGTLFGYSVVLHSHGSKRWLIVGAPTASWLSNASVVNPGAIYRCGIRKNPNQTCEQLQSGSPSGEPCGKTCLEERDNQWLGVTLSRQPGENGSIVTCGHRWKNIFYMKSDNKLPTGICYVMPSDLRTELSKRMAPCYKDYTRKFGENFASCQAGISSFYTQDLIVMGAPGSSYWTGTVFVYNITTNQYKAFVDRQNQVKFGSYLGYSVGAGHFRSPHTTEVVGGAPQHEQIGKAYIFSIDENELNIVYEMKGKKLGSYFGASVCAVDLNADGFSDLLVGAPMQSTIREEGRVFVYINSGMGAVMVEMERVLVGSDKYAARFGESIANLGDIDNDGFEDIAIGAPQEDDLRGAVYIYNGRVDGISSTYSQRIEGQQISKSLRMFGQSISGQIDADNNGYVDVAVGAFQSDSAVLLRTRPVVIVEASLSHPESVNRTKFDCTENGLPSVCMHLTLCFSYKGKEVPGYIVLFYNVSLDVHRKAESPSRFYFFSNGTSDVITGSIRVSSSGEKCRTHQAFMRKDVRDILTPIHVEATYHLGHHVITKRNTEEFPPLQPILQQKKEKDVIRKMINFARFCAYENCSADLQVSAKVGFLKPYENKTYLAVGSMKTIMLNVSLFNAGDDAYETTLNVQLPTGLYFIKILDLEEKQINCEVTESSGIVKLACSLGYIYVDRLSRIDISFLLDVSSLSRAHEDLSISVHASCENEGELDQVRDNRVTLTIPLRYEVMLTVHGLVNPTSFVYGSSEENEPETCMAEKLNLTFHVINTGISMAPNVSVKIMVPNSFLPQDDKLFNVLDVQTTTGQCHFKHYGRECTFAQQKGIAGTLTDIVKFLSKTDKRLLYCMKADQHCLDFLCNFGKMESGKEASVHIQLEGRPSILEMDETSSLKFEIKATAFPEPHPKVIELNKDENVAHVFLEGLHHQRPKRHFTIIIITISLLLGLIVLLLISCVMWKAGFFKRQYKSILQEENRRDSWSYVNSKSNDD
Sequence of mouse α4β7 integrin (mouse) (P26011 20-806, chain 2 of 2, further chain): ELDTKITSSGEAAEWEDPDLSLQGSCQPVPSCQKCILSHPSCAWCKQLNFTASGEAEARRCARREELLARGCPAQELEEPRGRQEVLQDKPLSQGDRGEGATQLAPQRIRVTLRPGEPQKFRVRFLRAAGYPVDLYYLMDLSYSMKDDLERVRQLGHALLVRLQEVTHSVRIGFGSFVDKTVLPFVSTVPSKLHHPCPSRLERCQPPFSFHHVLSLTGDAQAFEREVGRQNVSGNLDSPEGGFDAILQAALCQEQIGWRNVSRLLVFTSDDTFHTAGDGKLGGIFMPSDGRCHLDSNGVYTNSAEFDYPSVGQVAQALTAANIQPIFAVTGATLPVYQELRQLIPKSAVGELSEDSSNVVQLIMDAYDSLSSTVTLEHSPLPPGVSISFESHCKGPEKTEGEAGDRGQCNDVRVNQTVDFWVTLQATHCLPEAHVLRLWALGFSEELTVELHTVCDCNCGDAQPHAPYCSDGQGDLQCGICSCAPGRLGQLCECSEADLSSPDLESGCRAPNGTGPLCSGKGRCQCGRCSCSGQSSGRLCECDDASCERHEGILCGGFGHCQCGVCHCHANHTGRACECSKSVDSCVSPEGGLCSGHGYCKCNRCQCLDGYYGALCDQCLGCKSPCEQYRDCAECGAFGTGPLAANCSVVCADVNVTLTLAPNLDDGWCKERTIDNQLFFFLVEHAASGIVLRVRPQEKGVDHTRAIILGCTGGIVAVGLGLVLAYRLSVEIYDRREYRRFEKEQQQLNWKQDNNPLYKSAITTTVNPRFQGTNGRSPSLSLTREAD

[5] = molecular target: cynomolgus α4β7 integrin (cynomolgus monkey); assay: blockade of CHOK1-cα4β7 cell adhesion to MAdCAM-1
[6] = molecular target: human αEβ7 integrin (human) (UniProt P38570); assay: FACS, 1 µg/ml, BaF3-hαEβ7 cells
[7] = molecular target: human α4β7 integrin (human) (UniProt P13612); assay: FACS titration on BaF3-hα4β7
[8] = molecular target: human α4β7 integrin (human) (UniProt P13612); assay: blockade of HuT78 cell adhesion to MAdCAM-1
[9] = molecular target: human α4β7 integrin (human) (UniProt P13612); assay: competitive FACS, 50x excess of non-labelled competitor Ab-Vedo
[10] = molecular target: human α4β7 integrin (human) (UniProt P13612); assay: competitive FACS, 50x excess of non-labelled competitor Ab-Abri
[11] = molecular target: human α4β7 integrin (human) (UniProt P13612); assay: row IC50 (pM) HuT78 of the binning table (assay not explained, presumably adhesion to MAdCAM-1)
[12] = molecular target: cynomolgus α4β7 integrin (cynomolgus monkey); assay: FACS, 1 µg/ml, CHOK1-cα4β7 cells
[13] = molecular target: human α4β7 integrin (human) (UniProt P13612); assay: FACS, 1 µg/ml, BaF3-hα4β7 cells
[14] = molecular target: human α4β1 integrin (human) (UniProt P05556); assay: FACS, 1 µg/ml, CHOK1-hα4β1 cells
[15] = molecular target: human α4β7 integrin (human) (UniProt P13612); assay: FACS, primary human CD4+ memory T cells
[16] = molecular target: human α4β7 integrin (human) (UniProt P13612); assay: competitive FACS, 50x excess of non-labelled competitor Ab-Etro
[17] = molecular target: human α4β7 integrin (human) (UniProt P13612); assay: blockade of HuT78 adhesion to coated VCAM-1 hFc, experiment 2
[18] = molecular target: human α4β7 integrin (human) (UniProt P13612); assay: blockade of HuT78 adhesion to coated VCAM-1 hFc, experiment 3
[19] = molecular target: human α4β7 integrin (human) (UniProt P13612); assay: blockade of HuT78 adhesion to coated VCAM-1 hFc, average N = 3
[20] = molecular target: human α4β7 integrin (human) (UniProt P13612); assay: blockade of HuT78 adhesion to coated VCAM-1 hFc, experiment 1

Row | FACS MFI [1] | IC50 [2] | percentage of binding inhibition [3] | FACS MFI [4] | IC50 [5] | Max inhibition (%) [5] | FACS MFI [6] | EC50 [7] | Max MFI [7] | IC50 [8] | Max inhibition (%) [8] | percentage of binding inhibition [9] | percentage of binding inhibition [10] | IC50 [11] | FACS MFI [12] | FACS MFI [13] | FACS MFI [14] | EC50 [15] | percentage of binding inhibition [16] | Binder | also measured
1 | 247 MFI | 0.0499 nM | -1% | 92.2 MFI | 0.241 nM | 91.5% | 73.2 MFI | 0.705 nM | 951 MFI | 0.0178 nM | 104% | 6% | 60% | 0.0178 nM | 97.2 MFI | 440 MFI | 4.53 MFI | 5.4 pM | 93% | Ab-Etro (antibody, INN chains, looked up, V domains shown, IgG1 Alexa488 conjugate) VH: EVQLVESGGGLVQPGGSLRLSCAASGFFITNNYWGWVRQAPGKGLEWVGYISYSGSTSYNPSLKSRFTISRDTSKNTFYLQMNSLRAEDTAVYYCARTGSSGYFDFWGQGTLVTVSS VL: DIQMTQSPSSLSASVGDRVTITCRASESVDDLLHWYQQKPGKAPKLLIKYASQSISGVPSRFSGSGSGTDFTLTISSLQPEDFATYYCQQGNSLPNTFGQGTKVEIK | 
2 | 68.3 MFI | 0.0509 nM | 73% | 2.87 MFI | 0.0994 nM | 95.9% | 9.81 MFI | 0.679 nM | 775 MFI | 0.0129 nM | 103% | 88% | 89% | 0.0129 nM | 89.8 MFI | 624 MFI | 4.25 MFI | 4.9 pM | 80% | Ab-Abri (antibody, INN chains, looked up, V domains shown, IgG2 Alexa488 conjugate) VH: QVQLVQSGAEVKKPGASVKVSCKVSGYTLSDLSIHWVRQAPGKGLEWMGGFDPQDGETIYAQKFQGRVTMTEDTSTDTAYMELSSLKSEDTAVYYCATGSSSSWFDPWGQGTLVTVSS VL: DIQMTQSPSSVSASVGDRVTITCRASQGISSWLAWYQQKPGKAPKLLIYGASNLESGVPSRFSGSGSGTDFTLTISSLQPEDFANYYCQQANSFPWTFGQGTKVEIK | 
3 |  |  |  |  |  |  |  |  |  |  |  |  |  |  |  |  |  |  |  | Ab-Nata (antibody, INN chains, looked up, V domains shown) VH: QVQLVQSGAEVKKPGASVKVSCKASGFNIKDTYIHWVRQAPGQRLEWMGRIDPANGYTKYDPKFQGRVTITADTSASTAYMELSSLRSEDTAVYYCAREGYYGNYGVYAMDYWGQGTLVTVSS VL: DIQMTQSPSSLSASVGDRVTITCKTSQDINKYMAWYQQTPGKAPRLLIHYTSALQPGIPSRFSGSGSGRDYTFTISSLQPEDIATYYCLQYDNLWTFGQGTKVEIKR | IC50 [17]: 0.054 nM; IC50 [18]: 0.077 nM; IC50 [19]: 0.056 nM; IC50 [20]: 0.038 nM
